Legend:
[1] = tested on: HeLa Kyoto; experiment: solubility in G1/S (NP-40 vs SDS abundance) (log2 ratio); higher = more soluble; settings: cell cycle stage: G1/S
[2] = tested on: HeLa Kyoto; experiment: melting temperature (median over replicates), in situ; higher = more thermally stable
[3] = tested on: HeLa Kyoto; experiment: solubility change mitosis vs G1/S (difference of NP-40 vs SDS log2 ratios) (log2 ratio difference); higher = more soluble in mitosis
[4] = tested on: HeLa Kyoto; experiment: thermal stability score vs G1/S (z-score of summed log2 fold changes over temperatures); higher = more thermally stable than in G1/S
[5] = cell cycle stage: early G1 (4.5 h after nocodazole release)
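Throughout, for melting temperature (median over replicates), in situ: HeLa Kyoto cells synchronized by double thymidine or nocodazole block, proteins quantified by TMT10plex mass spectrometry, three independent biological replicates.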
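Throughout, for solubility change mitosis vs G1/S (difference of NP-40 vs SDS log2 ratios): synchronized HeLa Kyoto cells (double thymidine block for G1/S, nocodazole release for mitosis), protein amounts in NP-40 versus SDS lysates quantified by mass spectrometry, three biological replicates.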
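Throughout, for solubility in G1/S (NP-40 vs SDS abundance): HeLa Kyoto cells arrested at G1/S by double thymidine block, proteins quantified by TMT10plex mass spectrometry in mild NP-40 versus SDS extracts, three biological replicates.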
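Throughout, for thermal stability score vs G1/S (z-score of summed log2 fold changes over temperatures): synchronized HeLa Kyoto cells, proteins quantified by TMT10plex mass spectrometry, three biological replicates, mitosis taken 0.5 h after nocodazole release, G1/S directly after double thymidine block.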

Sequence | solubility in G1/S (log2) [1] | melting temperature ([2]; cell cycle stage: mitosis) [°C] | solubility change mitosis (log2) [3] | thermal stability score [4, 5] | thermal stability score ([4]; cell cycle stage: mitosis) | melting temperature ([2]; cell cycle stage: G1/S) [°C]
MVRKPVVSTISKGGYLQGNVNGRLPSLGNKEPPGQEKVQLKRKVTLLRGVSIIIGTIIGAGIFISPKGVLQNTGSVGMSLTIWTVCGVLSLFGALSYAELGTTIKKSGGHYTYILEVFGPLPAFVRVWVELLIIRPAATAVISLAFGRYILEPFFIQCEIPELAIKLITAVGITVVMVLNSMSVSWSARIQIFLTFCKLTAILIIIVPGVMQLIKGQTQNFKDAFSGRDSSITRLPLAFYYGMYAYAGWFYLNFVTEEVENPEKTIPLAICISMAIVTIGYVLTNVAYFTTINAEELLLSNAVAVTFSERLLGNFSLAVPIFVALSCFGSMNGGVFAVSRLFYVASREGHLPEILSMIHVRKHTPLPAVIVLHPLTMIMLFSGDLDSLLNFLSFARWLFIGLAVAGLIYLRYKCPDMHRPFKVPLFIPALFSFTCLFMVALSLYSDPFSTGIGFVITLTGVPAYYLFIIWDKKPRWFRIMSEKITRTLQIILEVVPEEDKL [SLC7A11] | -0.0116 | 57.5 | -0.169 | 0.372 | 0.123 | 
MVRPVRHKKPVNYSQFDHSDSDDDFVSATVPLNKKSRTAPKELKQDKPKPNLNNLRKEEIPVQEKTPKKRLPEGTFSIPASAVPCTKMALDDKLYQRDLEVALALSVKELPTVTTNVQNSQDKSIEKHGSSKIETMNKSPHISNCSVASDYLDLDKITVEDDVGGVQGKRKAASKAAAQQRKILLEGSDGDSANDTEPDFAPGEDSEDDSDFCESEDNDEDFSMRKSKVKEIKKKEVKVKSPVEKKEKKSKSKCNALVTSVDSAPAAVKSESQSLPKKVSLSSDTTRKPLEIRSPSAESKKPKWVPPAASGGSRSSSSPLVVVSVKSPNQSLRLGLSRLARVKPLHPNATST [RAD51AP1] | 0.0638 | 58 | 0.203 | 1.26 | 7.25 | 53.8
MVSHSELRKLFYSADAVCFDVDSTVIREEGIDELAKICGVEDAVSEMTRRAMGGAVPFKAALTERLALIQPSREQVQRLIAEQPPHLTPGIRELVSRLQERNVQVFLISGGFRSIVEHVASKLNIPATNVFANRLKFYFNGEYAGFDETQPTAESGGKGKVIKLLKEKFHFKKIIMIGDGATDMEACPPADAFIGFGGNVIRQQVKDNAKWYITDFVELLGELEE [PSPH] | 0.258 | 58.2 | -0.049 | -0.555 | -0.969 | 56.6
MVSIPEYYEGKNVLLTGATGFLGKVLLEKLLRSCPKVNSVYVLVRQKAGQTPQERVEEVLSGKLFDRLRDENPDFREKIIAINSELTQPKLALSEEDKEVIIDSTNIIFHCAATVRFNENLRDAVQLNVIATRQLILLAQQMKNLEVFMHVSTAYAYCNRKHIDEVVYPPPVDPKKLIDSLEWMDDGLVNDITPKLIGDRPNTYIYTKALAEYVVQQEGAKLNVAIVRPSIVGASWKEPFPGWIDNFNGPSGLFIAAGKGILRTIRASNNALADLVPVDVVVNMSLAAAWYSGVNRPRNIMVYNCTTGSTNPFHWGEVEYHVISTFKRNPLEQAFRRPNVNLTSNHLLYHYWIAVSHKAPAFLYDIYLRMTGRSPRMMKTITRLHKAMVFLEYFTSNSWVWNTENVNMLMNQLNPEDKKTFNIDVRQLHWAEYIENYCLGTKKYVLNEEMSGLPAARKHLNKLRNIRYGFNTILVILIWRIFIARSQMARNIWYFVVSLCYKFLSYFRASSTMRY [FAR1] | -0.254 | 51.2 | -0.0436 | 0.0485 | 0.111 | 51.7
MVSKALLRLVSAVNRRRMKLLLGIALLAYVASVWGNFVNMRSIQENGELKIESKIEEMVEPLREKIRDLEKSFTQKYPPVKFLSEKDRKRILITGGAGFVGSHLTDKLMMDGHEVTVVDNFFTGRKRNVEHWIGHENFELINHDVVEPLYIEVDQIYHLASPASPPNYMYNPIKTLKTNTIGTLNMLGLAKRVGARLLLASTSEVYGDPEVHPQSEDYWGHVNPIGPRACYDEGKRVAETMCYAYMKQEGVEVRVARIFNTFGPRMHMNDGRVVSNFILQALQGEPLTVYGSGSQTRAFQYVSDLVNGLVALMNSNVSSPVNLGNPEEHTILEFAQLIKNLVGSGSEIQFLSEAQDDPQKRKPDIKKAKLMLGWEPVVPLEEGLNKAIHYFRKELEYQANNQYIPKPKPARIKKGRTRHS [UXS1] | 0.264 | 54.7 | -0.193 | 0.535 | -0.237 | 54.6
MVSRPEPEGEAMDAELAVAPPGCSHLGSFKVDNWKQNLRAIYQCFVWSGTAEARKRKAKSCICHVCGVHLNRLHSCLYCVFFGCFTKKHIHEHAKAKRHNLAIDLMYGGIYCFLCQDYIYDKDMEIIAKEEQRKAWKMQGVGEKFSTWEPTKRELELLKHNPKRRKITSNCTIGLRGLINLGNTCFMNCIVQALTHTPLLRDFFLSDRHRCEMQSPSSCLVCEMSSLFQEFYSGHRSPHIPYKLLHLVWTHARHLAGYEQQDAHEFLIAALDVLHRHCKGDDNGKKANNPNHCNCIIDQIFTGGLQSDVTCQVCHGVSTTIDPFWDISLDLPGSSTPFWPLSPGSEGNVVNGESHVSGTTTLTDCLRRFTRPEHLGSSAKIKCSGCHSYQESTKQLTMKKLPIVACFHLKRFEHSAKLRRKITTYVSFPLELDMTPFMASSKESRMNGQYQQPTDSLNNDNKYSLFAVVNHQGTLESGHYTSFIRQHKDQWFKCDDAIITKASIKDVLDSEGYLLFYHKQFLEYE [USP22] | -0.542 | 49.6 | -0.0588 | 0.773 | 1.56 | 48.1
MVTVGNYCEAEGPVGPAWMQDGLSPCFFFTLVPSTRMALGTLALVLALPCRRRERPAGADSLSWGAGPRISPYVLQLLLATLQAALPLAGLAGRVGTARGAPLPSYLLLASVLESLAGACGLWLLVVERSQARQRLAMGIWIKFRHSPGLLLLWTVAFAAENLALVSWNSPQWWWARADLGQQVQFSLWVLRYVVSGGLFVLGLWAPGLRPQSYTLQVHEEDQDVERSQVRSAAQQSTWRDFGRKLRLLSGYLWPRGSPALQLVVLICLGLMGLERALNVLVPIFYRNIVNLLTEKAPWNSLAWTVTSYVFLKFLQGGGTGSTGFVSNLRTFLWIRVQQFTSRRVELLIFSHLHELSLRWHLGRRTGEVLRIADRGTSSVTGLLSYLVFNVIPTLADIIIGIIYFSMFFNAWFGLIVFLCMSLYLTLTIVVTEWRTKFRRAMNTQENATRARAVDSLLNFETVKYYNAESYEVERYREAIIKYQGLEWKSSASLVLLNQTQNLVIGLGLLAGSLLCAYFVTEQKLQVGDYVLFGTYIIQLYMPLNWFGTYYRMIQTNFIDMENMFDLLKEETEVKDLPGAGPLRFQKGRIEFENVHFSYADGRETLQDVSFTVMPGQTLALVGPSGAGKSTILRLLFRFYDISSGCIRIDGQDISQVTQASLRSHIGVVPQDTVLFNDTIADNIRYGRVTAGNDEVEAAAQAAGIHDAIMAFPEGYRTQVGERGLKLSGGEKQRVAIARTILKAPGIILLDEATSALDTSNERAIQASLAKVCANRTTIVVAHRLSTVVNADQILVIKDGCIVERGRHEALLSRGGVYADMWQLQQGQEETSEDTKPQTMER [ABCB6] | -0.0102 | 53.4 | -0.128 | -1.04 | -3.83 | 54
MVVMARLSRPERPDLVFEEEDLPYEEEIMRNQFSVKCWLRYIEFKQGAPKPRLNQLYERALKLLPCSYKLWYRYLKARRAQVKHRCVTDPAYEDVNNCHERAFVFMHKMPRLWLDYCQFLMDQGRVTHTRRTFDRALRALPITQHSRIWPLYLRFLRSHPLPETAVRGYRRFLKLSPESAEEYIEYLKSSDRLDEAAQRLATVVNDERFVSKAGKSNYQLWHELCDLISQNPDKVQSLNVDAIIRGGLTRFTDQLGKLWCSLADYYIRSGHFEKARDVYEEAIRTVMTVRDFTQVFDSYAQFEESMIAAKMETASELGREEEDDVDLELRLARFEQLISRRPLLLNSVLLRQNPHHVHEWHKRVALHQGRPREIINTYTEAVQTVDPFKATGKPHTLWVAFAKFYEDNGQLDDARVILEKATKVNFKQVDDLASVWCQCGELELRHENYDEALRLLRKATALPARRAEYFDGSEPVQNRVYKSLKVWSMLADLEESLGTFQSTKAVYDRILDLRIATPQIVINYAMFLEEHKYFEESFKAYERGISLFKWPNVSDIWSTYLTKFIARYGGRKLERARDLFEQALDGCPPKYAKTLYLLYAQLEEEWGLARHAMAVYERATRAVEPAQQYDMFNIYIKRAAEIYGVTHTRGIYQKAIEVLSDEHAREMCLRFADMECKLGEIDRARAIYSFCSQICDPRTTGAFWQTWKDFEVRHGNEDTIKEMLRIRRSVQATYNTQVNFMASQMLKVSGSATGTVSDLAPGQSGMDDMKLLEQRAEQLAAEAERDQPLRAQSKILFVRSDASREELAELAQQVNPEEIQLGEDEDEDEMDLEPNEVRLEQQSVPAAVFGSLKED [XAB2] | -0.31 | 48.4 | 0.0385 | 2.02 | 4.49 | 47.4
MWALRAAVRPGLRLSRVGRGRSAPRAAAPSCPARALAAVGRRSPGNLEGPWGGGRGLRADGGRSRTGDDEEEPEDADENAEEELLRGEPLLPAGTQRVCLVHPDVKWGPGKSQMTRAEWQVAEATALVHTLDGWSVVQTMVVSTKTPDRKLIFGKGNFEHLTEKIRGSPDITCVFLNVERMAAPTKKELEAAWGVEVFDRFTVVLHIFRCNARTKEARLQVALAEMPLHRSNLKRDVAHLYRGVGSRYIMGSGESFMQLQQRLLREKEAKIRKALDRLRKKRHLLRRQRTRREFPVISVVGYTNCGKTTLIKALTGDAAIQPRDQLFATLDVTAHAGTLPSRMTVLYVDTIGFLSQLPHGLIESFSATLEDVAHSDLILHVRDVSHPEAELQKCSVLSTLRGLQLPAPLLDSMVEVHNKVDLVPGYSPTEPNVVPVSALRGHGLQELKAELDAAVLKATGRQILTLRVRLAGAQLSWLYKEATVQEVDVIPEDGAADVRVIISNSAYGKFRKLFPG [GTPBP6] | -0.232 | 51.4 | 0.00881 | -0.762 | -0.462 | 51.8
MWFFARDPVRDFPFELIPEPPEGGLPGPWALHRGRKKATGSPVSIFVYDVKPGAEEQTQVAKAAFKRFKTLRHPNILAYIDGLETEKCLHVVTEAVTPLGIYLKARVEAGGLKELEISWGLHQIVKALSFLVNDCSLIHNNVCMAAVFVDRAGEWKLGGLDYMYSAQGNGGGPPRKGIPELEQYDPPELADSSGRVVREKWSADMWRLGCLIWEVFNGPLPRAAALRNPGKIPKTLVPHYCELVGANPKVRPNPARFLQNCRAPGGFMSNRFVETNLFLEEIQIKEPAEKQKFFQELSKSLDAFPEDFCRHKVLPQLLTAFEFGNAGAVVLTPLFKVGKFLSAEEYQQKIIPVVVKMFSSTDRAMRIRLLQQMEQFIQYLDEPTVNTQIFPHVVHGFLDTNPAIREQTVKSMLLLAPKLNEANLNVELMKHFARLQAKDEQGPIRCNTTVCLGKIGSYLSASTRHRVLTSAFSRATRDPFAPSRVAGVLGFAATHNLYSMNDCAQKILPVLCGLTVDPEKSVRDQAFKAIRSFLSKLESVSEDPTQLEEVEKDVHAASSPGMGGAAASWAGWAVTGVSSLTSKLIRSHPTTAPTETNIPQRPTPEGVPAPAPTPVPATPTTSGHWETQEEDKDTAEDSSTADRWDDEDWGSLEQEAESVLAQQDDWSTGGQVSRASQVSNSDHKSSKSPESDWSSWEAEGSWEQGWQEPSSQEPPPDGTRLASEYNWGGPESSDKGDPFATLSARPSTQPRPDSWGEDNWEGLETDSRQVKAELARKKREERRREMEAKRAERKVAKGPMKLGARKLD [SCYL1] | -0.162 | 50.3 | -0.184 | 0.0922 | 0.113 | 50.9

Source: the supplement of paper PMC5998384
